The assay has as its target T1, CHL1 extracellular domain (human, UniProt O00533 25-1082).
T1 construct: extracellular domain; Soluble query (streptavidin tetramer) in cell assays; recombinant protein (R&D) in SPR; also called neural cell adhesion molecule L1-like protein; close homolog of L1
T1 sequence (looked up): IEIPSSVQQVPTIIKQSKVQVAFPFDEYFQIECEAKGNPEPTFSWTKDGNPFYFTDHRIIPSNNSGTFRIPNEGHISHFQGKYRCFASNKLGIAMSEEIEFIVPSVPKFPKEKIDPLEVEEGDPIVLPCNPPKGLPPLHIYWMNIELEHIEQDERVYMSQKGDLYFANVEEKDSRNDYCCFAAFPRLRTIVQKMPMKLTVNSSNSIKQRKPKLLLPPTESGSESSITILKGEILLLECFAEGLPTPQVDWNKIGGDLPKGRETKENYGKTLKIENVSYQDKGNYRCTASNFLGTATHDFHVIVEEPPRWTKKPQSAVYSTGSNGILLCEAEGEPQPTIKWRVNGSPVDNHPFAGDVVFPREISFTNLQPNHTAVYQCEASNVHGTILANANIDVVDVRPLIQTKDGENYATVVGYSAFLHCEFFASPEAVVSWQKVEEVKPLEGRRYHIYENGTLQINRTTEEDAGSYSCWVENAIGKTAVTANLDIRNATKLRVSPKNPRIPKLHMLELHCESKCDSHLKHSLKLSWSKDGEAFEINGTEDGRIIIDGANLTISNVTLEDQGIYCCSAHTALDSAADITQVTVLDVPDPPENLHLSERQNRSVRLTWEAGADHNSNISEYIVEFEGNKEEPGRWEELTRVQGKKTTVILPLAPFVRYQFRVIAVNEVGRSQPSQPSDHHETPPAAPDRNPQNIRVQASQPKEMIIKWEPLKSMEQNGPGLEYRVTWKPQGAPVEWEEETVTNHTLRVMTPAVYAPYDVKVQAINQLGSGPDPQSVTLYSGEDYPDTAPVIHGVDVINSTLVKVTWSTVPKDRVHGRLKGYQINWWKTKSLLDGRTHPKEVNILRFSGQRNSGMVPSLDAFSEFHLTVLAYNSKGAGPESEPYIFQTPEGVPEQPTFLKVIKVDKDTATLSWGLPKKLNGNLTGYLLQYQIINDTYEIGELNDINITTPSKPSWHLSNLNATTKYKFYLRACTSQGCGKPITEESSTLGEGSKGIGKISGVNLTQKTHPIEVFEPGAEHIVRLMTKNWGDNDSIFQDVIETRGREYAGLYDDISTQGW
Put plainly: SPR, CHL1 immobilized, CNTN1 ECD-Fc injected at 250 nM. In general terms: SPR reads the build-up and loss of mass on a sensor chip optically.

This is an account of results in US20220119490A1 (Genentech, published 2022).

B1: CNTN1 extracellular domain (receptor, human, UniProt Q12860 21-993, looked up)
chain: EFTWYRRYGHGVSEEDKGFGPIFEEQPINTIYPEESLEGKVSLNCRARASPFPVYKWRMNNGDVDLTSDRYSMVGGNLVINNPDKQKDAGIYYCLASNNYGMVRSTEATLSFGYLDPFPPEERPEVRVKEGKGMVLLCDPPYHFPDDLSYRWLLNEFPVFITMDKRRFVSQTNGNLYIANVEASDKGNYSCFVSSPSITKSVFSKFIPLIPIPERTTKPYPADIVVQFKDVYALMGQNVTLECFALGNPVPDIRWRKVLEPMPSTAEISTSGAVLKIFNIQLEDEGIYECEAENIRGKDKHQARIYVQAFPEWVEHINDTEVDIGSDLYWPCVATGKPIPTIRWLKNGYAYHKGELRLYDVTFENAGMYQCIAENTYGAIYANAELKILALAPTFEMNPMKKKILAAKGGRVIIECKPKAAPKPKFSWSKGTEWLVNSSRILIWEDGSLEINNITRNDGGIYTCFAENNRGKANSTGTLVITDPTRIILAPINADITVGENATMQCAASFDPALDLTFVWSFNGYVIDFNKENIHYQRNFMLDSNGELLIRNAQLKHAGRYTCTAQTIVDNSSASADLVVRGPPGPPGGLRIEDIRATSVALTWSRGSDNHSPISKYTIQTKTILSDDWKDAKTDPPIIEGNMEAARAVDLIPWMEYEFRVVATNTLGRGEPSIPSNRIKTDGAAPNVAPSDVGGGGGRNRELTITWAPLSREYHYGNNFGYIVAFKPFDGEEWKKVTVTNPDTGRYVHKDETMSPSTAFQVKVKAFNNKGDGPYSLVAVINSAQDAPSEAPTEVGVKVLSSSEISVHWEHVLEKIVESYQIRYWAAHDKEEAANRVQVTSQEYSARLENLLPDTQYFIEVGACNSAGCGPPSDMIEAFTKKAPPSQPPRIISSVRSGSRYIITWDHVVALSNESTVTGYKVLYRPDGQHDGKLYSTHKHSIEVPIPRDGEYVVEVRAHSDGGDGVVSQVKIS
notes: extracellular domain; Streptavidin tetramer in cell assays; ECD-Fc in SPR; also called contactin 1
As to B1, the binding result is given as “binds”.
